Numbering of substitutions follows the chain as printed.
Experiments:
Experiment in all cases: BLI (Octet), biotinylated mAb on streptavidin sensors, culture supernatant
[1] = target: T1, RSV181178 (I152M + K226M) (respiratory syncytial virus, subgroup B …, UniProt O36634 26-109; P13843 137-540)
T1 construct: Measured in crude culture supernatant, no furin co-transfection
T1 chain 1: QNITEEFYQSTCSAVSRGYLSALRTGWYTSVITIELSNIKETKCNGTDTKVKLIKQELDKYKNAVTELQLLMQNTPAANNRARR
T1 chain 2: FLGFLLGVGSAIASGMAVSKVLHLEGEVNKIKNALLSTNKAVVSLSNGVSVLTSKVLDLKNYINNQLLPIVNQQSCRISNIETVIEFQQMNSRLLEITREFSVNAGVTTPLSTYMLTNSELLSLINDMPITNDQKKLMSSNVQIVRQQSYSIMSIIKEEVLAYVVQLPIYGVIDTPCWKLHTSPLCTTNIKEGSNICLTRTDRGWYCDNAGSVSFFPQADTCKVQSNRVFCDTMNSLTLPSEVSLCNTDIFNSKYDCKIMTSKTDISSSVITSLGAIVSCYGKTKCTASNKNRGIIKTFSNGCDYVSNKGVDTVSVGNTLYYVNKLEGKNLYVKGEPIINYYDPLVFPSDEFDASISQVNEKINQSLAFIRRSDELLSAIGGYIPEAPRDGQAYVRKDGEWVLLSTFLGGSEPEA
Protocol: (§1) Quantitative Octet (BioLayer Interferometry) was used for measuring protein concentration in the supernatants at day of harvest and after 7 or 30 days storage at 4° C. CR9501 (an antibody specifically recognizing pre-fusion RSV F protein, which comprises the variable regions of the antibodies 58C5 as described in WO2012/006596) and CR9506 (recognizing pre-fusion and post-fusion RSV F protein and comprising a heavy chain variable region comprising SEQ ID NO: 21, and a light chain variable region comprising SEQ ID NO: 22) were biotinylated by standard protocols and immobilized on Streptavidin biosensors (ForteBio, Portsmouth, UK).
(§2) Afterwards, the coated biosensors were blocked in mock cell culture supernatant. A quantitative experiment was performed as follows: temperature 30° C., shaking speed 1000 rpm, time of the assay 300 sec. The concentration of the protein was calculated using a standard curve. The standard curve was prepared for each coated antibody CR9501 and CR9506 using the pre-fusion RSV FA protein (SEQ ID NO: 19; described previously in WO17174568) diluted in mock medium. […] The data analysis was done using the ForteBio Data Analysis 10.0.1.6 software (ForteBio).

[2] = target: T2, RSV181179 (I152M + K226M + D486N) (respiratory syncytial virus, subgroup B …, UniProt O36634 26-109; P13843 137-540)
T2 construct: Measured in crude culture supernatant, no furin co-transfection
T2 chain 1: T1 chain 1
T2 chain 2: T1 chain 2 with D350N
Protocol: as §1, §2

[3] = target: T3, RSV180910 (RSV FB signal peptide, C-tag) (respiratory syncytial virus, subgroup B …, UniProt O36634 26-109; P13843 137-540)
T3 construct: Same mature protein as RSV180916, expressed with the RSV B signal peptide; measured in culture supernatant, furin co-transfected
T3 chain 1: T1 chain 1 with P76Q
T3 chain 2: T1 chain 2 with L67I, S79P, D350N
Protocol: as §1, §2

[4] = target: T4, RSV180915 (I152M + K226M + D486N + S215P) (respiratory syncytial virus, subgroup B …, UniProt O36634 26-109; P13843 137-540)
T4 chain 1: T1 chain 1
T4 chain 2: T1 chain 2 with S79P, D350N
Protocol: as §1, §2

[5] = target: T5, RSV180916 (I152M + K226M + D486N + S215P + L203I + P101Q; C-tag, RSV A signal peptide) (respiratory syncytial virus, subgroup B …, UniProt O36634 26-109; P13843 137-540)
T5 chain 1: T1 chain 1 with P76Q
T5 chain 2: T1 chain 2 with L67I, S79P, D350N
Protocol: as §1, §2

Measured: binding result

B1: CR9506 (antibody, human IgG1, kappa, V domains shown)
VH: EVQLVQSGAEVKKPGSSVKVSCKASGGTFSRSLITWVRQAPGQGLEWMGEISLVFGSAKNAQKFQGRVTITADESTSTAHMEMISLKHEDTAVYYCAAHQYGSGTHNNFWDESELRFDLWGQGTLVTVSS
VL: DIVMTQSPSSLSASVGDRVTIACRASQSIGTYLNWYQQKPGKAPKLLIYAASSLQSGVPSRFSGSGSGTHFTLAISSLQAEDFATYSCQQSYTIPYTFGQGTKLEIKR
notes: Biotinylated for Octet; coated and also used HRP-labelled as detection antibody in the ELISA
binds: all assays above

Reference: patent US20240132548A1 (Janssen / Centocor, published 2024)
